Paper PMC4894940, “The function of the two-pore channel TPC1 depends on dimerization of its carboxy-terminal helix” (Cellular and Molecular Life Sciences: CMLS, 2016)
Residues, ends and D or L forms follow the SMILES beside them.

What was measured:
[1] = test system: tryptophane-labeled 3LA mutant CTH peptide; experiment: Label-free MicroScale Thermophoresis (MST), 3LA mutant CTH peptide; type: binding, Arabidopsis thaliana; details: 3 nM to 100 µM, 750 nM tryptophane-labeled peptide, PBS pH 7.5, 1 % DMSO, 0.1 % Pluronic, 25 °C, technical duplicates
Protocol: (§1) For MST experiments, peptides corresponding to the consensus helical sequence (RSQRVDTLLHHMLGDEL) and the 3LA mutant (RSQRVDTAAHHMAGDEL) were synthesized (Peptide Speciality Laboratories GmbH, Heidelberg, Germany). To allow for label-free MST binding experiments, additional wild type and mutant peptides were synthesized, which were C-terminally extended by addition of two tryptophanes and a short linker (AAWW).
(§2) Labelfree MicroScale Thermophoresis binding experiments were performed in cooperation with the 2bind GmbH (Regensburg, Germany), using 750 nM tryptophane containing target peptide in PBS pH 7.5, 1 % DMSO, 0.1 % Pluronic with varied concentrations of the ligand peptide at 80 % MST power, 100 % LED power in hydrophilic zero background capillaries on a Monolith NT.labelfree device at 25 °C (NanoTemper Technologies, Munich, Germany). Normalized fluorescence data sets (WT peptide and MT peptide) were analyzed in the thermophoresis and temperature jump. For determination of the binding affinity (K D) of the wild type peptide, the recorded fluorescence was normalized to the fraction bound (0 = unbound, 1 = bound), and fitted using the K D fit formula derived from the law of mass action. Technical duplicates were performed for each experimental setup.

[2] = molecular target: wild type peptide labeled by tryptophane (Arabidopsis thaliana, UniProt Q94KI8); experiment: Label-free MicroScale Thermophoresis (MST), CTH wild type peptide; type: binding; details: 750 nM tryptophane-containing target peptide, ligand 3 nM to 100 µM, PBS pH 7.5, 1 % DMSO, 0.1 % Pluronic, 25 °C, 80 % MST power, 100 % LED power, technical duplicates, read-out: dissociation constant (K D) of CTH homo-dimerization
Protocol: as §1, §2

[3] = test system: Myc-tagged C-terminus of TPC1; experiment: Co-immunoprecipitation of TPC1 C-termini in HEK293T cells; type: binding, Arabidopsis thaliana; details: IP anti-Myc, WB anti-Myc / anti-Flag, 3 independent experiments
Source text: For the Co-IP tests the C-terminally tagged GFP-fusions were used as templates to amplify the soluble C-terminus (amino acids 673–733) of TPC1 or TPC1-3LP fused to GFP with PCR. The constructs were subcloned into the pENTR-D-TOPO vector and afterwards brought into the expression vectors with EcoRI and XhoI (New England Biolabs), so that they were N-terminally tagged either with 6x Myc (pCS2+MT) or with the FLAG-tag (pCS2 + Flag).
HEK293T cells were propagated in DMEM GIBCO Glutamax (Life Technologies) supplemented with 10 % fetal calf serum. Cells were seeded in 6–well plates (20–30 % confluency) and transfected the next day using 10 µl Roti-Fect (Carl Roth) per 2 µg total DNA (1 µg DNA per plasmid). Two days after transfection cells were washed with 2 ml PBS buffer (Life Technologies) and harvested for immunoprecipitation in 150 µl cold lysis buffer (10 mM HEPES, 150 mM NaCl, 1 % Nonidet P40, 5 % glycerol, pH 7,4/KOH) supplemented with protease inhibitors and phosphatase inhibitors (Complete mini EDTA free and PhosStop, Roche). Cells were disrupted mechanically with a syringe (cannula diameter 0.55 mm). The lysate was cleared by centrifugation at 13.500 rpm and 4 °C for 10 min. Total protein concentrations were measured with a bicinchoninic acid protein assay (Applichem), typically the total protein amount was 500–600 µg. Loading controls of 50 µg of the lysate were taken accordingly and filled up to 20 µl with lysis buffer before adding 5 µl of 5x sample buffer (250 mM Tris, 5 % SDS, 25 % glycerol, 0.25 % bromophenol blue, 250 mM β–mercaptoethanol, pH 6.8/HCl) and boiling. For immunoprecipitation, 3 µg of mouse anti-c-Myc Epitope antibody 9E10 (sc-40, Santa Cruz) was used per sample. Samples were incubated with the antibody for 45 min at 4 °C with a rotator, then 10 µl of protein G Dynabeads (Life Technologies) equilibrated in the lysis buffer was added to each sample and incubation continued for another 45 min. Samples were washed three times with cold lysis buffer before eluting three times with 20 µl of 100 mM glycine (pH 2.5/HCl). […]

[4] = molecular target: the molecule itself; experiment: MST; label-free MST; 750 nM tryptophane-containing target peptide in PBS pH 7.5, 1 % DMSO, 0.1 % Pluronic, unlabeled ligand peptide varied from 3 nM to 100 µM, 25 °C, Monolith NT.labelfree; monomer to dimer
[5] = test system: tonoplast; experiment: Confocal localization of GFP-fusions in tpc1-2 mesophyll protoplasts; type: cell-based, Arabidopsis thaliana; details: GFP-fusion in tpc1-2 mesophyll protoplasts
Protocol: Expression of GFP-fusion proteins for electrophysiological measurements or confocal microscopy was performed in A. thaliana tpc1-2 mesophyll protoplasts as described. Briefly, leaves were enzymatically digested to release mesophyll protoplasts, which were then transformed by the polyethylene glycol method. Protoplasts were used for electrophysiological measurements and subcellular localization of GFP fluorescence 2–4 days after transformation.
Fluorescence signals were detected and documented with a TCS SP2 confocal laser scanning microscope and the Leica Confocal Software (Leica Microsystems). A 488 nm Argon laser was used for excitation of GFP and of the auto-fluorescence of chlorophyll. GFP-signals were detected from 500 to 556 nm and chlorophyll signals from 675 to 767 nm. Venus was excited with a […] and detected in the range from 520 to 556 nm, the corresponding chlorophyll signals were detected from 637 to 736 nm. Images were processed with Photoshop (Adobe Systems).

[6] = test system: TPC1 subunits co-expressed in Nicotiana benthamiana leaves; experiment: Bimolecular fluorescence complementation (Split Venus BiFC); type: cell-based; details: N. benthamiana leaves, plate reader and confocal
Protocol: For BiFC analyses the gateway entry vector pENTR-D-TOPO and the destination vectors pDEST–^GWVYCE and pDEST–^GWVYNE were used for C-terminal fusion of the Venus C- and N-terminus, respectively, and pDEST–VYCE(R)^GW and pDEST–VYNE(R)^GW for N-terminal tagging.
BiFC studies were performed as described using a Split Venus system. The Agrobacterium strain C58C1 [42] harboring the plasmid of interest and the helper strain p19 [43] were grown in LB medium supplemented with 100 µg/ml Kanamycin at 29 °C overnight. The cultures were brought to an optical density (OD600) of 1.0 in infiltration buffer (10 mM MES, 10 mM MgCl2, 100 µM acetosyringone, pH 5.7/KOH) and the combinations to test for co-expression mixed at equal amounts. The p19 helper strain (OD600 = 1.0) was added to these mixtures in a 1:1 ratio. Suspensions were incubated for 2 h before infiltration into the abaxial side of 6-week-old N. benthamiana leaves. Each leaf was infiltrated with several plasmid combinations and a positive control (TPC1/pDEST-^GWVYCE and TPC1/pDEST-^GWVYNE) as well as a negative control (p19 alone) at separated areas to monitor comparability of the transient expression and to define background fluorescence.
For fluorescence quantification leaf disks (Ø 6 mm) were cut out of the infiltrated areas with a cork borer 2.5 day after infiltration. Leaf disks were placed upside-down in a black 96-well plate prefilled with 70 µl H2O per well to minimize dehydration effects. Fluorescence was measured with a plate-reader (Infinite F200, Tecan) with an excitation wavelength of 485 ± 20 nm and an emission wavelength of 525 ± 25 nm.

RSQRVDTAAHHMAGDEL [3LA mutant, 3LA mutant CTH peptide …]
interaction in MST [1]: no interaction was measured
interaction in MST ([1]; listed as 3-LA peptide): no interactions
interaction in MST ([1]; listed as CTH-3LA): lack of dimer formation

CSCC[C@H](NC(=O)[C@H](Cc1c[nH]cn1)NC(=O)[C@H](Cc1c[nH]cn1)NC(=O)[C@H](CC(C)C)NC(=O)[C@H](CC(C)C)NC(=O)[C@@H](NC(=O)[C@H](CC(=O)O)NC(=O)[C@@H](NC(=O)[C@H](CCCNC(=N)N)NC(=O)[C@H](CCC(N)=O)NC(=O)[C@H](CO)NC(=O)[C@@H](N)CCCNC(=N)N)C(C)C)[C@@H](C)O)C(=O)N[C@@H](CC(C)C)C(=O)NCC(=O)N[C@@H](CC(=O)O)C(=O)N[C@@H](CCC(=O)O)C(=O)N[C@@H](CC(C)C)C(=O)O [CTH peptide] (H-RSQRVDTLLHHMLGDEL-OH)
Kd [2]: 3.85 ± 1.1 µM

B1: C-terminus of the TPC1-3LP-mutant: soluble C-terminus of TPC1-3LP, N-terminally 6xMyc- or FLAG-tagged, C-terminal GFP fusion (protein)
chain: EAFFTELDLEEEEKCQGQDSQEKRNRRRSAGSKSRSQRVDTPPHHMPGDELSKPECSTSDT-eGFP
modifications: not fully specified (N-terminus); also: N-terminally 6xMyc- or FLAG-tagged
notes: soluble C-terminus of TPC1-3LP, N-terminally 6xMyc- or FLAG-tagged, C-terminal GFP fusion
Co-IP of C-termini [3]: reduced ability to dimerize
Co-IP of C-termini ([3]; listed as 3LP-Flag-Ct): visibly weaker interaction of the two C-termini

B2: TPC1 C-terminus: soluble C-terminus (residues 673–732) of wild type TPC1, N-terminally 6xMyc- or FLAG-tagged, C-terminal GFP fusion (protein)
chain: EAFFTELDLEEEEKCQGQDSQEKRNRRRSAGSKSRSQRVDTLLHHMLGDELSKPECSTSDT-eGFP
modifications: not fully specified (N-terminus); also: N-terminal 6xMyc or FLAG tag
notes: soluble C-terminus (residues 673–732) of wild type TPC1, N-terminally 6xMyc- or FLAG-tagged, C-terminal GFP fusion
Co-IP of C-termini [3]: bound to itself

B3: Synthetic wild type CTH peptide (consensus C-terminal helix of TPC1, residues 707-723) (peptide)
peptide: RSQRVDTLLHHMLGDEL
notes: The two copies are written as one molecule; also called WT peptide; wild type peptide; source: synthetic peptide (Peptide Speciality Laboratories GmbH); not shown: AAWW (short linker and two tryptophans; only on the target copy held at 750 nM), C-terminal, kept
Kd [4]: 3.85 ± 1.1 µM

B4: N-terminally tagged TPC1: TPC1 subunits N-terminally tagged with Venus halves (BiFC) or GFP (localization) (protein)
chain: MEDPLIGRDSLGGGGTDRVRRSEAITHGTPFQKAAALVDLAEDGIGLPVEILDQSSFGESARYYFIFTRLDLIWSLNYFALLFLNFFEQPLWCEKNPKPSCKDRDYYYLGELPYLTNAESIIYEVITLAILLVHTFFPISYEGSRIFWTSRLNLVKVACVVILFVDVLVDFLYLSPLAFDFLPFRIAPYVRVIIFILSIRELRDTLVLLSGMLGTYLNILALWMLFLLFASWIAFVMFEDTQQGLTVFTSYGATLYQMFILFTTSNNPDVWIPAYKSSRWSSVFFVLYVLIGVYFVTNLILAVVYDSFKEQLAKQVSGMDQMKRRMLEKAFGLIDSDKNGEIDKNQCIKLFEQLTNYRTLPKISKEEFGLIFDELDDTRDFKINKDEFADLCQAIALRFQKEEVPSLFEHFPQIYHSALSQQLRAFVRSPNFGYAISFILIINFIAVVVETTLDIEESSAQKPWQVAEFVFGWIYVLEMALKIYTYGFENYWREGANRFDFLVTWVIVIGETATFITPDENTFFSNGEWIRYLLLARMLRLIRLLMNVQRYRAFIATFITLIPSLMPYLGTIFCVLCIYCSIGVQVFGGLVNAGNKKLFETELAEDDYLLFNFNDYPNGMVTLFNLLVMGNWQVWMESYKDLTGTWWSITYFVSFYVITILLLLNLVVAFVLEAFFTELDLEEEEKCQGQDSQEKRNRRRSAGSKSRSQRVDTLLHHMLGDELSKPECSTSDT
modifications: left off: Venus C-terminal half (VC, one copy) or Venus N-terminal half (VN, the other copy), N-terminal, kept
subcellular localization of GFP-fusion [5]: tonoplast localization
BiFC signal [6]: did not result in Venus-fluorescence
